What was measured:
[1] = tested on: stationary phase S. aureus NRS-14; assay: kinetic stability (lytic assay after incubation at indicated temperatures); format: cell-based, Staphylococcus aureus; details: 25 μg/ml
Method: (§1) Lytic activity was based on turbidity reduction assay (Nelson D C et al. (2012) Endolysins as antimicrobials. Adv Virus Res 83:299-365). Briefly, bacterial cells were centrifuged (4,000 RPM, 5 minutes, 4° C.), re-suspended in buffer and mixed 1:1 (v/v) with endolysin to a final OD600=1. OD600 readings were taken every 15 seconds for 20 minutes at 37° C. Endolysin activity was equated to the Vmax dictated by the linear portion of the resulting killing curve. Each experiment was performed in triplicate.
To determine dose response, PlyGRCS was serially diluted and each dosage (100 μl) was added in triplicate to a 96-well polystyrene microtiter plate (Nest Biotech Co, Ltd) just before addition of bacterial cells (100 μl) according to the turbidity reduction assay described above. For optimum pH determination, bacterial cells were suspended in 40 mM boric acid/phosphoric acid (BP) buffer, pH 3-11, and were challenged against PlyGRCS. The influence of NaCl on PlyGRCS activity was tested in BP buffer at the experimentally determined pH optimum using the same assay. The effect of divalent cations was determined using the turbidity reduction assay with several modifications. […] Kinetic stability was evaluated (Son B et al. (2012) Characterization of LysB4, an endolysin from the Bacillus cereus-infecting bacteriophage B4. BMC Microbiol 12:33) with minor modifications. […]

[2] = tested on: stationary phase S. aureus NRS-14; assay: turbidity reduction assay (lytic activity); format: cell-based, Staphylococcus aureus; details: for decrease in optical density: 15 minutes
Method: as §1
To determine dose response, PlyGRCS was serially diluted and each dosage (100 μl) was added in triplicate to a 96-well polystyrene microtiter plate (Nest Biotech Co, Ltd) just before addition of bacterial cells (100 μl) according to the turbidity reduction assay described above. For optimum pH determination, bacterial cells were suspended in 40 mM boric acid/phosphoric acid (BP) buffer, pH 3-11, and were challenged against PlyGRCS. The influence of NaCl on PlyGRCS activity was tested in BP buffer at the experimentally determined pH optimum using the same assay. The effect of divalent cations was determined using the turbidity reduction assay with several modifications. First, PlyGRCS was incubated at room temperature in PBS or PBS supplemented with 5 mM EDTA for 10 minutes. Second, the EDTA-treated samples received either no further treatment, or were supplemented with 6 mM CaCl2 or 6 mM MgCl2. Finally, the lytic active of the samples was then immediately assayed and compared to PlyGRCS in PBS prior to EDTA inactivation. Kinetic stability was evaluated (Son B et al. (2012) Characterization of LysB4, an endolysin from the Bacillus cereus-infecting bacteriophage B4. BMC Microbiol 12:33) with minor modifications. Lytic assays were performed in optimal conditions after PlyGRCS was incubated at indicated temperatures for 30 minutes and subsequently recovered on ice for 5 minutes.

[3] = tested on: S. aureus NRS-14 static biofilms; assay: biofilm assay (crystal violet staining); format: cell-based, Staphylococcus aureus; details: 6.25 μg/ml, 1 hour, 1 day biofilms
Method: An overnight culture of S. aureus NRS-14 (1 ml per well) was placed into 24-well CELLBIND plates (Corning) containing 500 μl of TSB per well. After an additional 24 hour incubation at 37° C., media was aspirated and samples were washed with PBS to remove unattached cells. Two-fold serial dilutions of PlyGRCS in triplicate were added in 1 ml BP buffer pH 7 and incubated at 37° C. for one hour. Liquid was aspirated and samples were washed with distilled water before drying. Biofilms were stained with 0.01% crystal violet for 10 min at room temperature. After removing the excess crystal violet, samples were washed with PBS and dried before the addition of 1 ml 10% SDS to extract the crystal violet from the biomass for quantification at OD595.

[4] = tested on: Bacillus pumulis, BJ0055; assay: plate lysis assay (spectrum of lytic activity); format: cell-based; set-up: key: strong lytic zone = ++; weak lytic zone = +; no lytic zone = −; details: 6 μg
Method: (§2) The PlyGRCS spectrum of lytic activity was performed (Schmelcher M et al. (2012) Chimeric phage lysins act synergistically with lysostaphin to kill mastitis-causing Staphylococcus aureus in murine mammary glands. Appl Environ Microbiol 78(7):2297-305) with minor modifications. Bacterial cells were diluted in sterile PBS to an OD600=1, and 100 μl was spread on each plate. 10 μl spots (600 μg/ml) of PlyGRCS or CHAPGRCS were applied. Plates were incubated overnight at 37° C. Strength of lytic zones was defined qualitatively.

[5] = tested on: Streptococcus uberis, ATCC 700407; assay: plate lysis assay (spectrum of lytic activity); format: cell-based; set-up: key: strong lytic zone = ++; weak lytic zone = +; no lytic zone = −; details: 6 μg
Method: as §2

[6] = tested on: Staphylococcus aureus, NRS-382; assay: plate lysis assay (spectrum of lytic activity); format: cell-based; set-up: key: strong lytic zone = ++; weak lytic zone = +; no lytic zone = −; details: 6 μg; S. aureus NRS-382, MRSA
Method: as §2

[7] = tested on: Streptococcus equi, ATCC 9528; assay: plate lysis assay (spectrum of lytic activity); format: cell-based; set-up: key: strong lytic zone = ++; weak lytic zone = +; no lytic zone = −; details: 6 μg
Method: as §2

[8] = tested on: Streptococcus suis, 730082; assay: plate lysis assay (spectrum of lytic activity); format: cell-based; set-up: key: strong lytic zone = ++; weak lytic zone = +; no lytic zone = −; details: 6 μg
Method: as §2

[9] = tested on: Streptococcus pyogenes, D471; assay: plate lysis assay (spectrum of lytic activity); format: cell-based; set-up: key: strong lytic zone = ++; weak lytic zone = +; no lytic zone = −; details: 6 μg
Method: as §2

[10] = tested on: Enterococcus facealis, EF24; assay: plate lysis assay (spectrum of lytic activity); format: cell-based; set-up: key: strong lytic zone = ++; weak lytic zone = +; no lytic zone = −; details: 6 μg
Method: as §2

[11] = tested on: Staphylococcus aureus, NRS-385; assay: plate lysis assay (spectrum of lytic activity); format: cell-based; set-up: key: strong lytic zone = ++; weak lytic zone = +; no lytic zone = −; details: 6 μg; S. aureus NRS-385, MRSA
Method: as §2

[12] = tested on: Streptococcus pneumoniae, ATCC BAA-334; assay: plate lysis assay (spectrum of lytic activity); format: cell-based; set-up: key: strong lytic zone = ++; weak lytic zone = +; no lytic zone = −; details: 6 μg
Method: as §2

[13] = highest dose of 28 to 1.75 μg/ml dose response

B1: PlyGRCS: endolysin of bacteriophage GRCS (ORF15), amino acids 1-250, SEQ ID NO: 5, C-terminal 6× His tag (protein)
chain: MKSQQQAKEWIYKHEGTGVDFDGAYGFQCMDLAVAYVYYITDGKVRMWGNAKDAINNDFKGLATVYENTPSFKPQLGDVAVYTNSQYGHIQCVISGNLDYYTCLEQNWLGGGFDGWEKATIRTHYYDGVTHFIRPKFSASNSNVLETSKVNTFGNWKQNQYGTYYRNENATFTCGFLPIFARVGSPKLSEPNGYWFQPNGYTPYDEVCLSDGLVWIGYNWQGTRYYLPVRQWNGKTGNSYSIGLPWGVFS
modifications: C-terminal 6xHis tag; Synthetically generated polypeptide (PlyGRCS phage (S. aureus))
In the case of B1, the residual lytic activity ([1]; after 30 minutes at 4° C. to 37° C.) is reported as over 90%, the “lytic activity after heating (in words)” value ([1]; after 30 minutes at ≧40° C.) is reported as “lytic activity was not observed” and the “decrease in optical density” value ([2]; 25 μg/mL) is reported as 70%. The “lytic activity of EDTA-treated enzyme with excess CaCl2, compared to prior to EDTA treatment” value ([2]; 5 mM EDTA then 6 mM CaCl2) was “nearly twice the lytic activity”, the “lytic activity of EDTA-treated enzyme with magnesium” value ([2]; 5 mM EDTA then 6 mM MgCl2) was “mimicked that of the EDTA-treated sample” and the “lytic activity after EDTA treatment” value ([2]; 5 mM EDTA, 10 minutes) was “devoid of lytic activity”. The “decrease in activity by NaCl” value ([2]; 500 mM NaCl, BP buffer pH 7.0) was about 35%, the “optimal pH for lytic activity” value ([2]; BP buffer, pH range 3.0 to 11.0) was 7.0 and the “time to 50% decrease in optical density” value [2, 13] was under 10 min. The “decrease in optical density” value [2, 13] was 70%, the “decrease in biofilm biomass” value [3] was about 50% and the “strength of lytic zone” value [4] was “−”. For the same molecule, the “strength of lytic zone” value [5] was “−”, the “strength of lytic zone” value [6] was “+” and the “strength of lytic zone” value [7] was “−”. The “strength of lytic zone” value [8] was “−”, the “strength of lytic zone” value [9] was “−” and the “strength of lytic zone” value [10] was “−”. The “strength of lytic zone” value [11] was “+” and the “strength of lytic zone” value [12] was “−”.

Reference: patent US9872893B2, “Endolysins active against Staphylococcus bacteria, pharmaceutical compositions, and methods relating thereto” (priority 2014, dated 2018)
